Target: T1, human PD-L1 ECD-His (human, UniProt Q9NZQ7 19-238)
T1 construct: extracellular domain; Analyte in all SPR and BLI runs; also called hPD-L1_ECD-His; hPD-L1 ECD-His; not shown: His tag
Assay: Fab ELISA screen after panning on hPD-L1-His; coated antigen not named

T1 sequence (Q9NZQ7 19-238): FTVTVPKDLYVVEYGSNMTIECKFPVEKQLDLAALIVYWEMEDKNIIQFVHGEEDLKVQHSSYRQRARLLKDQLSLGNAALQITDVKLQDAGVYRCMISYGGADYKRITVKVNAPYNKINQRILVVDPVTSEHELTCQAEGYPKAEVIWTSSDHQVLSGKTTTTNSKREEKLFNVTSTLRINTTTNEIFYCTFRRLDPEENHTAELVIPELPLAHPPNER

B1: PL3#7-54 Fab (Fab, V domains shown)
VH: QVQLVQSGAEVKKPGSSVKVSCKASGGTFSSYPISWVRQAPGQGLEWMGRIIPILGIADYAQKFQGRVTITADKSTSTAYMELSSLRSEDTAVYYCARSRPGYAFGAFDIWGQGTLVTVSS
VL: QSVVTQPPPVSGAPGQRVTISCTGSSSNIGQGYDVHWYQQLPGTAPKLLIYANSNRPSGVPDRFSGSKSGTSASLAITGLQAEDEADYYCQTYDSSLSARVVFGGGTKLTVL
  binding result: binds
